# Test results as given in the RNAGym collection of RNA variant scans (doi:10.7554/elife.80360).
# B1: Hairpin Ribozyme (parent)
# chain: GUCCUCUUUCACGUGCGCGUGAAAGAGAGAAGUGAACCAGAGAAACACACGUUGUGGUAUAUUACCUGGUA
# Variants of: B1
# Assay: self-cleavage, relative activity (ratio to wild type); higher = more cleavage; co-transcriptional
row,Variant,self-cleavage
1,U63A G69C,0.0966
2,A64G A71G,0.554
3,A64G A71C,0.76
4,A64G A71U,0.287
5,A61C A64C,0.0878
6,U60A A61G,0.216
7,U60A G68U,0.189
8,U60A G68C,0.236
9,U60C A71U,1.18
10,U60C A71G,1.08
11,U60C A71C,1.66
12,A61C U67A,0.252
13,A61C U67C,0.107
14,U70C A71U,1.64
15,U70C A71C,1.79
16,U62C A71C,0.595
17,U63G G68C,0.169
18,U67A U70G,0.186
19,U67A U70A,0.237
20,U63C C65A,0.106
21,U63C C65U,0.131
22,C65U A71U,0.441
23,A59U C65U,0.13
24,A61C G69U,0.145

row,Variant,self-cleavage
1,A61C G69A,0.159
2,C65G U67C,0.183
3,U60C U63C,0.314
4,G68C A71G,0.233
5,G68C A71C,0.436
6,U60G C65U,0.183
7,A61G C66A,0.246
8,U62A G69A,0.176
9,U62A G69C,0.113
10,U62A G69U,0.04
11,U67C A71U,0.224
12,G69A A71C,0.912
13,G69A A71U,0.152
14,A64U G69C,0.259
15,U63C A71G,0.328
16,U63C A71U,0.191
17,U60G U62A,0.203
18,G68A A71U,0.15
19,U63A C66G,0.0954
20,U63A C66A,0.118
21,A61G U70C,0.146
22,U63A U70A,0.0404
23,U63G U67C,0.149
24,U60A U67G,0.187

row,Variant,self-cleavage
1,U60A U67C,0.155
2,A61C C65A,0.165
3,A64C C65U,0.223
4,A64C C65A,0.186
5,U62A C66A,0.12
6,G69A U70G,0.325
7,G69A U70C,0.387
8,A64G U67G,0.159
9,A64G U67C,0.122
10,A64G U67A,0.0458
11,U62G U63A,0.0488
12,U62G U63G,0.191
13,U62G U63C,0.243
14,A61U A64U,0.3
15,U62A A64U,0.197
16,U62A A64G,0.093
17,G68U A71G,0.253
18,G68U A71C,0.329
19,U60C C66U,0.451
20,U60C C66A,0.31
21,C65A G69A,0.169
22,U70C,0.924
23,U70A,0.926
24,U70G,0.844

row,Variant,self-cleavage
1,A61U C66U,0.176
2,A61U C66A,0.122
3,C65U G68U,0.327
4,C65U G68C,0.108
5,U63A G68U,0.225
6,U63A G68C,0.225
7,U63A G68A,0.276
8,U60G U63A,0.173
9,U60G U63G,0.0801
10,U62A G68C,0.156
11,U62A G68A,0.187
12,U67A G68A,0.115
13,U67A G68U,0.128
14,U67A G68C,0.157
15,A61U C65U,0.188
16,A61U C65G,0.193
17,U62C A64U,0.187
18,U62C A64C,0.149
19,U62A U70A,0.143
20,U62C G68C,0.223
21,U62C G68A,0.2
22,U60A A71C,1.24
23,U60A A71U,0.616
24,U60A C65A,0.807

row,Variant,self-cleavage
1,U62G A64U,0.0808
2,U62G A64C,0.2
3,U62G A64G,0.166
4,A64C A71C,0.28
5,U60C A64U,0.183
6,U60C A64C,0.201
7,U60A U70G,0.553
8,A64C U67C,0.151
9,U62A A71C,0.325
10,U62A A71U,0.169
11,C66G U67G,0.211
12,U63A C65A,0.219
13,G69U,0.243
14,G69A,0.407
15,G69C,0.289
16,U62G U67A,0.25
17,A64G G68A,0.226
18,U60C A61G,0.228
19,U60G U70G,0.514
20,C66A G68C,0.161
21,C66A G68U,0.105
22,C66U U67C,0.326
23,U60G A71U,0.395
24,U63C G69A,0.216

row,Variant,self-cleavage
1,A59U U67A,0.141
2,C65A C66A,0.15
3,A61G G69A,0.16
4,U60C U62G,0.155
5,A61G A64U,0.202
6,U62G C66U,0.12
7,U67G G69A,0.134
8,C65U G69U,0.279
9,U63G C65U,0.11
10,U67G A71G,0.208
11,C66A G69A,0.268
12,C65G C66U,0.429
13,C65G C66G,0.178
14,C65U C66U,0.185
15,C65U C66A,0.172
16,U63C A64U,0.185
17,U63C,0.186
18,U63A,0.188
19,U63G,0.171
20,C66A U67G,0.091
21,C65G G68C,0.151
22,U62C G69C,0.0631
23,G68C U70C,0.339
24,U60G G68U,0.296

row,Variant,self-cleavage
1,C65G G69A,0.138
2,C65U U67C,0.209
3,C65U U67G,0.229
4,U60G C66U,0.361
5,U60G C66A,0.0537
6,A61U G68C,0.191
7,A61U G68A,0.219
8,U67A A71C,0.381
9,A64C G69C,0.129
10,U63C G68C,0.133
11,U63C G68A,0.192
12,U62C U70C,0.255
13,U62C U70A,0.194
14,A59U G68C,0.0787
15,U62C U67A,0.166
16,U60G A61C,0.315
17,A64U U67A,0.206
18,U62G G68U,0.257
19,A61U U70A,0.175
20,A64U G68A,0.173
21,G68U G69A,0.3
22,G68U G69U,0.183
23,U62G C65G,0.223
24,U62G C65A,0.157

row,Variant,self-cleavage
1,C65A U67G,0.197
2,U62G A71U,0.367
3,G68A U70A,0.156
4,U60C G68A,0.26
5,U60C G68U,0.204
6,U62C U63G,0.228
7,A64U U70G,0.155
8,C65A G68A,0.378
9,U63G A64G,0.134
10,A61U U62G,0.0473
11,A61U U62C,0.197
12,U67A G69A,0.116
13,G69C A71G,0.316
14,G69C A71C,0.609
15,A64C G68U,0.26
16,A64C G68A,0.18
17,U67C G69A,0.178
18,U60G U67A,0.144
19,U60C G69C,0.326
20,A59U C66U,0.191
21,G69U U70C,0.304
22,U60A U63G,0.136
23,A61G A71G,0.168
24,A61G A71C,0.308

row,Variant,self-cleavage
1,A59U U70G,0.159
2,A59U U70C,0.199
3,U60C U67C,0.329
4,U60C U67G,0.207
5,U63A A64U,0.198
6,U67G G68C,0.177
7,C66U G69C,0.198
8,C66U G69U,0.187
9,C66U G69A,0.216
10,U60A C66G,0.191
11,A64C U70C,0.0963
12,U62C C66A,0.13
13,A61U,0.213
14,A61G,0.183
15,A61C,0.214
16,U70A A71C,1.21
17,A64U A71G,0.311
18,U63C U70A,0.189
19,A61G U62C,0.0932
20,C66U A71C,0.757
